Laboratory results from the supplement of paper PMC10567573.

B1: EHMT1 (parent)
chain: EEINKNISDFGRQQLLPPFPSLHQ

Variants of: B1
Assay: protein stability index of a GFP-peptide fusion (GPS, HEK-293T) (PSI 1-6); higher = more stable
Details: c terminus: a fixed tail appended
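Further: lentivirally expressed fusions sorted by FACS into six bins by GFP to DsRed ratio, PSI derived from sequencing read proportions per bin multiplied by bin number.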

Protein stability index, by site and new letter:
L15: C 2.54; I 2.85; Y 2.97; G 3.37; T 3.15; A 2.81; E 3.65; V 3.62; N 2.87; F 2.31; D 3.81; W 2.5; K 3.07; R 3.28; P 2.92; Q 3.3; S 2.82; H 2.96; M 2.71
D9: W 2.15; T 2.61; S 2.42; V 2.31; Y 2.4; R 2.22
G11: H 2.43; Q 3.25; S 2.73; F 2.02; M 2.85; T 2.53; K 2.59; A 2.88; V 2.24; L 1.88; I 1.71; Y 2.15; D 2.97; E 3.06; R 2.48; W 1.55; N 3; C 1.94; P 2.87
Q14: C 2.18; A 2.74; S 2.62; K 2.84; M 2.49; H 2.29; F 2.02; L 2.31; W 2.03; Y 1.78; E 3; N 2.54; I 2.77; T 2.45; P 2.39; R 2.45; D 2.84; V 2.77; G 2.92
Q13: V 2.45; C 2.06; E 3.38; I 2.19; M 2.94; R 2.42; F 2.5; G 3; N 2.65; W 2.23; D 3.25; K 2.59; L 2.48; A 3.2; T 2.56; Y 2.7; P 3.4; H 2.32; S 2.75
P17: N 2.54; F 2.02; H 2.52; M 2.27; Y 2.54; S 3.22; L 2.21; C 2.84; Q 3.27; R 2.94; K 3.09; I 1.82; E 3.87; T 2.41; W 2.02; G 2.83; D 2.74; V 2.18; A 2.79
F10: V 3.04; C 2.6; L 2.91; N 3.24; M 3.04; D 3.91; P 3.31; T 2.86; R 2.88; S 3.4; H 2.99; I 2.52; W 2.59; K 3.45; Y 3.11; A 3.04; G 3.39; E 3.37; Q 3.3
R12: L 2.74; Q 2.97; C 2.79; G 3.15; S 3.12; V 3.25; D 3.64; Y 2.86; N 3.5; W 2.24; I 2.93; F 2.23; A 3.2; E 3.46; H 2.77; P 3.38; M 2.47; K 3.06; T 3.52
P18: A 3.28; G 3.31; F 2.91; C 3.16; H 3.15; I 2.87; D 3.46; E 3.66; K 3.36
L16: C 3.26; I 2.82; R 3.23; G 3.85; H 3.32; M 2.79; Q 3.83; A 3.57; S 3.73; P 3.34; T 3.5; N 3.71; D 4; E 3.72; F 2.42; W 2.65; K 3.05; Y 2.45; V 3.33
